Data: patent publication US20090035322A1 (Regeneron, published 2009)

T1: mutant human CD20 #9 (N163D, N166D) (human, UniProt P11836 1-297)
T1 construct: Stably expressed on MG87 cells
T1 chain: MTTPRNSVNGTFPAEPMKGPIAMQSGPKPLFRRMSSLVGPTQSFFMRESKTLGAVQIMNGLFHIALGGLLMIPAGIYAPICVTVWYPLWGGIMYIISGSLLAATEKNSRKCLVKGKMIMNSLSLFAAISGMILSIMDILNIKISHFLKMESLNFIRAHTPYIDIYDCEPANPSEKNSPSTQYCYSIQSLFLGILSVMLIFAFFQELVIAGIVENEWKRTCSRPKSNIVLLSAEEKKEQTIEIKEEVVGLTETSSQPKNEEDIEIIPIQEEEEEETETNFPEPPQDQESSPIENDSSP

T2: mutant human CD20 #5 (P172S) (human, UniProt P11836 1-297)
T2 construct: Stably expressed on MG87 cells
T2 sequence: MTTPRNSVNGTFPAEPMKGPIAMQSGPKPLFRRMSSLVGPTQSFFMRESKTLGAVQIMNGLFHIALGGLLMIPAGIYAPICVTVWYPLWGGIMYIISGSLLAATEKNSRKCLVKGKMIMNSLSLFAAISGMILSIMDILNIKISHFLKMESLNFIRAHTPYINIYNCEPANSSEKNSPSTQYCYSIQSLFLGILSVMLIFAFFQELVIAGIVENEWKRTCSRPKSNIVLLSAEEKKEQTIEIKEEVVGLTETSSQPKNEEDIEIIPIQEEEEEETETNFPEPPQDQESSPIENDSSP

T3: mutant human CD20 #6 (Y77F, N166D) (human, UniProt P11836 1-297)
T3 construct: Stably expressed on MG87 cells
T3 chain: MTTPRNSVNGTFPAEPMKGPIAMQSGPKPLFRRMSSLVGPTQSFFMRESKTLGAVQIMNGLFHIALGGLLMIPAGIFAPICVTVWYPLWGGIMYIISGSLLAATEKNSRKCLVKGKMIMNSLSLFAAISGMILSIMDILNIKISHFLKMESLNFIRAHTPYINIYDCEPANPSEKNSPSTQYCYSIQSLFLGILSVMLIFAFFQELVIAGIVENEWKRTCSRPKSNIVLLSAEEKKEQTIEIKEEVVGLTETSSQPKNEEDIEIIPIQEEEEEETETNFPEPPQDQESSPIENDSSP

T4: mutant human CD20 #10 (A157V) (human, UniProt P11836 1-297)
T4 construct: Stably expressed on MG87 cells
T4 sequence: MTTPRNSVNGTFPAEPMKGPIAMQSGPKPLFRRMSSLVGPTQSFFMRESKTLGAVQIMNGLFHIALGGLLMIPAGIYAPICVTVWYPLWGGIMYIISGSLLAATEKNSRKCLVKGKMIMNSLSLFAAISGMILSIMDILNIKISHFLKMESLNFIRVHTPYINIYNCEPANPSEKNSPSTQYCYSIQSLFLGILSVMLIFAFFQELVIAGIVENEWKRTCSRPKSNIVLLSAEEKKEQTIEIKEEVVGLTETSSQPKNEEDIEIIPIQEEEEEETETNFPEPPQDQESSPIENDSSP

T5: mutant human CD20 #1 (Y77F) (human, UniProt P11836 1-297)
T5 construct: Human residues replaced by mouse residues; stably expressed on MG87 cells
T5 sequence: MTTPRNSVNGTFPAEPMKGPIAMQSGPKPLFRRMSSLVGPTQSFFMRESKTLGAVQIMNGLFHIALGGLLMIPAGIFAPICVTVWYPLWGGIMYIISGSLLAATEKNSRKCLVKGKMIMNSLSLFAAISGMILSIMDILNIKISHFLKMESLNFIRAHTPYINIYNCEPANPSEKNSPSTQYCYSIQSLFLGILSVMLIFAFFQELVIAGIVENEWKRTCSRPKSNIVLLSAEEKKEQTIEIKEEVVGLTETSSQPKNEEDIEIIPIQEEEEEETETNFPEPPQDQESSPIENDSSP

T6: mutant human CD20 #8 (Y77F, N163D, N166D) (human, UniProt P11836 1-297)
T6 construct: Stably expressed on MG87 cells
T6 chain: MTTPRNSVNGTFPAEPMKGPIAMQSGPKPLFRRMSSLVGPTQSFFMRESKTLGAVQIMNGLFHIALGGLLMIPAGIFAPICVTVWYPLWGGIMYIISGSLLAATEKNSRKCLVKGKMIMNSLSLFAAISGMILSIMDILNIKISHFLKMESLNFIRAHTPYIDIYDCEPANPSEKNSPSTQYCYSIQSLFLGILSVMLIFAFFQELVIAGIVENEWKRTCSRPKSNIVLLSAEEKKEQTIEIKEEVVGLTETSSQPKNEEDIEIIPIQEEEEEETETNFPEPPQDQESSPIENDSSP

T7: mutant human CD20 #4 (N166D) (human, UniProt P11836 1-297)
T7 construct: Stably expressed on MG87 cells
T7 sequence: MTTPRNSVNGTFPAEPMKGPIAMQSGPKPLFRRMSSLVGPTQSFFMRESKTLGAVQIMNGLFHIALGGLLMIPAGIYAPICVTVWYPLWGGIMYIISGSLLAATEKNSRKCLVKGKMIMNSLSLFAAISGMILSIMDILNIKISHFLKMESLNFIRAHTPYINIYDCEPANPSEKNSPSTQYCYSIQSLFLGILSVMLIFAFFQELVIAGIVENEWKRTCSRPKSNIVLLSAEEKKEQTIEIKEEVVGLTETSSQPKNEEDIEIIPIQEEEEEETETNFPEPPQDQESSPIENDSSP


Experiments:
Test in all cases: FACS, mutant-hCD20 MG87 cells; 100%=best antibody
[1] = biological target: T1, mutant human CD20 #9 (N163D, N166D)
Experimental: (§1) Briefly, approximately 1×10⁶ cells from each stably transfected cell line expressing a mutant human CD20 were collected and incubated with each anti-human antibody, at 10 μg/ml, on ice for 1 hr, followed by incubation with APC-conjugated goat anti-human IgG (Jackson Immunolabs), at 10 μg/ml, on ice for 45 min. For each antibody, binding to each mutant human CD20 was assessed by flow cytometry.

[2] = biological target: T2, mutant human CD20 #5 (P172S)
Experimental: as §1

[3] = biological target: T3, mutant human CD20 #6 (Y77F, N166D)
Experimental: as §1

[4] = biological target: T4, mutant human CD20 #10 (A157V)
Experimental: as §1

[5] = biological target: T5, mutant human CD20 #1 (Y77F)
Experimental: as §1

[6] = biological target: T6, mutant human CD20 #8 (Y77F, N163D, …)
Experimental: as §1

[7] = biological target: T7, mutant human CD20 #4 (N166D)
Experimental: as §1

Percent of Binding to Mutant Human CD20 [1] | Percent of Binding to Mutant Human CD20 [2] | Percent of Binding to Mutant Human CD20 [3] | Percent of Binding to Mutant Human CD20 [4] | Percent of Binding to Mutant Human CD20 [5] | Percent of Binding to Mutant Human CD20 [6] | Percent of Binding to Mutant Human CD20 [7] | Binder
4% | 2% | 1% | 52% | 19% | 0% | 0% | 9H4-12 (antibody, V domains shown, Fully human IgG, constant region not specified; also called 9H4-12N) VH: EVQLVESGGGLVQPGRSLRLSCAASGFTFDDYAMHWVRQVPGKGLEWVSGISWNSGSIGYADSVKGRFTISRDNAKNSLYLQMNSLRAEDTALYYCAKDMGYGNYYHYGMDVWGQGTTVTVSS VL: DIVLTQSPATLSLSPGERATLSCRASQSVSSYLAWYQQKPGQAPRLLICDASHRATRIPARFSGSGSGTDFTLTISSLEPEDFAVYYCQQRSNWPITFGQGTRLEIK
4% | 88% | 12% | 83% | 100% | 0% | 100% | 2B7-7 (antibody, V domains shown, Fully human IgG, constant region not specified; also called 2B7-7N) VH: EVQLVESGGGLVQPGRSLRLSCAASGFTFRDYTMHWVRQGPGKGLEWVSGISWNSDYIGYADSVKGRFTISRDNAKNSLYLQMNSLRVEDTALYYCAKLSGTYRDYFYGVDVWGQGTTVTVSS VL: EIVLTQSPATLSLSPGERAALSCRASQSVSNYLAWYQQKPGQAPRLLIYDASNRATGIPARFSGSGSGTDFTLTISSLEPEDFAVYYCQQRSNWPLTFGGGTKVEIR
3% | 67% | 1% | 75% | 74% | 0% | 3% | 6B9-4 (antibody, V domains shown, Fully human IgG, constant region not specified; also called 6B9-4N) VH: EEQLVESGGDLVQPGRSLRLSCAASGFTFHDYTMHWVRQAPGKGLEWVSGISWNSGSIGYADSVKGRFTISRDNAKNSLYLQMNSLRIEDTALYYCAKDPSYGSGSYYYYYGMDVWGQGTTVTVSS VL: EIVLTQSPATLSLSPGERATLSCRASQSVSSYLVWYQQRPGQAPRLLIYEASNRATGIPARFSGSGSGTDFTLTISSLESEDFAVYYCQQRSNWPLTFGGGTKVEIK
100% | 29% | 87% | 83% | 89% | 100% | 87% | 9C11-14 (antibody, V domains shown, Fully human IgG, constant region not specified; also called 9C11-14N) VH: QVQLVESGGDSVKPGGSLRLSCAASGFTFSDSYMTWIRQAPGKGLEWVSFISSSGSTIYYADSVKGRFTISRDNVKKSLYLQMNRLRAEDTAVYYCAREEPGNYVYYGMDVWGQGTTVTVSS VL: EIVVTQSPATLSLSPGERATLSCRTSQTTTSYLAWYRQKPGQAPRLLIYDASNRAAGIPARFSGSGSGTDFTLTINSLEPEDFAVYYCQLRTNWITFGQGTRLEIK
4% | 49% | 1% | 87% | 61% | 0% | 1% | 10E3-17 (antibody, V domains shown, Fully human IgG, constant region not specified; also called 10E3-17N) VH: EVQLVESGGGLVQPGRSLRLSCAASGFTFRDYAMHWVRQVPGKGLEWVSGISWNRGTIGYADSVKGRFTISRDNAKNSLFLQMNSLRADDTALYYCAKDHYYGSGSPYGMDVWGQGTTVTVSS VL: EIVLTQSPATLALSPGERATLSCRASQSVSKYLAWYQQKPGQAPRLLIYDASKRVTGIPGRLSGSGSGTDFTLTISSLEPEDFALYYCQQSSNWPITFGQGTRVEIK
3% | 45% | 0% | 80% | 28% | 0% | 4% | 3H7-6 (antibody, V domains shown, Fully human IgG, constant region not specified; also called 3H7-6N) VH: EVQLVESGGGLVQPGRSLRLSCAASGFTFYDYAMHWVRQAPGKGLEWVSGISWNSGYIGYADSVKGRFTISRDNAKNSLYLQMNSLRAEDTALYYCAKDNSYGKFYYGLDVWGQGTTVTVSS VL: EIVMTQSPATLSVSPGERTTLSCRASQSVSSNLAWYLQKPGQAPRLLIYGASTRATGIPARFSGSGSGTEFILTISSLQSEDFAVYYCQQYNNWPITFGQGTRLEIK
